According to paper doi:10.1101/2024.02.19.580884 (bioRxiv, 2024):

T1: 6xHis-AccC (Bacillus subtilis 168, UniProt P49787 1-450)
T1 sequence (looked up): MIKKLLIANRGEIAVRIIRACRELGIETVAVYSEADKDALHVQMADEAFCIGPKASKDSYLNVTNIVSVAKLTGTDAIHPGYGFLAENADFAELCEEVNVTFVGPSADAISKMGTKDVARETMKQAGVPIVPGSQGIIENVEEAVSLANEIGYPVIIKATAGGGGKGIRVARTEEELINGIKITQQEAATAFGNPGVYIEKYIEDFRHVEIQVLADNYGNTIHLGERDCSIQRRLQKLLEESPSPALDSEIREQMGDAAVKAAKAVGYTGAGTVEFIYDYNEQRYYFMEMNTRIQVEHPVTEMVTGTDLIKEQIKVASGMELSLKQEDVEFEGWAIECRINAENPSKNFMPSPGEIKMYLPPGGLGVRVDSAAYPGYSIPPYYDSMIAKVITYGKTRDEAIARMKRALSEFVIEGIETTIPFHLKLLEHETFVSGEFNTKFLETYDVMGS

T2: Strep-tagged AccC (Bacillus subtilis 168, UniProt P49787 1-450)
T2 sequence (looked up): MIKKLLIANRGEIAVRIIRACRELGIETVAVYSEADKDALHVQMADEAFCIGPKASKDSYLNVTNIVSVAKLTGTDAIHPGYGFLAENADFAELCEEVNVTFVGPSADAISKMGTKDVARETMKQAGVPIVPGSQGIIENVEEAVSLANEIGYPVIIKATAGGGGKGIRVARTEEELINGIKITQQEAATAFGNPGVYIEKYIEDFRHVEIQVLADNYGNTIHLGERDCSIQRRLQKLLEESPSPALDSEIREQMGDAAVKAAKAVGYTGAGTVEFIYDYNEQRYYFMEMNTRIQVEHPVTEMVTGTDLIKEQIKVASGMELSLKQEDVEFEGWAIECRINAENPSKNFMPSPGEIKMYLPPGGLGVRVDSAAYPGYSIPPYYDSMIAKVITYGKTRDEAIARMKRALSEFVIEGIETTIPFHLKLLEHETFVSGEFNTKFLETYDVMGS

T3: Strep-tagged AccB (Bacillus subtilis 168, UniProt P49786 1-159)
T3 sequence (looked up): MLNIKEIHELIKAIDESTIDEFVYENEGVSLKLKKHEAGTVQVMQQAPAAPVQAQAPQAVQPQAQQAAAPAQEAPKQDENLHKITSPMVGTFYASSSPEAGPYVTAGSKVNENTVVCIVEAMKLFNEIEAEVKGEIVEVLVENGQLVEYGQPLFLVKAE


Assays:
Assay in all cases: pull-down
[1] = target: T1, 6xHis-AccC
[2] = target: T2, Strep-tagged AccC
[3] = target: T3, Strep-tagged AccB

binding result [1]	binding result [2]	binding result [3]	Binder
binds	–	–	GST-tagged RfaA (natural protein, Bacillus subtilis 168, UniProt P54519 1-135, looked up) MKDNSLLKMDHEDTHLGKVEIAPEVIEVIAGIAASEVDGVAEMRGNFATGVVERFGKVNHGKGVKVDLADDGITIDVYCVVTFGVSIPKVAASVQENIRQTLLNMTSLSINEINIHIVGIQFDTKAQEVQIDEEM
–	binds	binds	6xHis-SUMO-RfaA (natural protein, Bacillus subtilis 168, UniProt P54519 1-135, looked up) MKDNSLLKMDHEDTHLGKVEIAPEVIEVIAGIAASEVDGVAEMRGNFATGVVERFGKVNHGKGVKVDLADDGITIDVYCVVTFGVSIPKVAASVQENIRQTLLNMTSLSINEINIHIVGIQFDTKAQEVQIDEEM
